# In patent US20150005237A1, “PEPTIDIC INHIBITOR OF SIGNAL TRANSMISSION FROM G-ALPHA-S TO G-ALPHA-I-COUPLED RECEPTOR CASCADES” (UNIVERSITÄT INNSBRUCK, priority 2011, published 2015):
# How the values were obtained:
# [1] = target: Gαi3 transiently overexpressed in COS7 cells; test: cAMP agarose precipitation from COS7 lysates after 15 min forskolin, immunoblot densitometry
# [2] = target: Gαi of δOR-HEK293 cells (endogenous, receptor-activated); test: cell-based or functional assay
Substance,fold enrichment of R:Gαi3 complexes (forskolin pre-treatment against basal conditions) [1],sensitivity of the MAPK pathway (SNC80-mediated ERK1/2 phosphorylation) to stimulation by the δOR agonist [2]
"endogenous PKA regulatory subunits (R/Reg) of COS7 cells, bound to 2AHA-cAMP-coupled agarose beads",3.8 fold,
"endogenous PKA regulatory subunits (R; RII/RegII) of δOR-HEK293 cells, cAMP-activated",,7 fold
